Data on 14 sequences can be found in a protein production outcome set (Wang et al. 2014).

The data set can be described thus: label from the status in PepcDB records.
In the case of “MLAGHLFAGVGEDVRLFKGITMTYGHNIELGDNAVVHDGVHLDDRGELVVGARASVSNGAHLYTHDHDVVDQTDVTNYRTEIGADARVTQGALVRAGVRVGENALVGSRSVVQGDVPAHHIAVGSPAESVRVKPGWLEHHHHHH”, the protein production result is “failed”.
With “MQDTLPSRREIAPDSTRPPPTHDDVRAQLNRIITSPQFPHIGRSAAFLTYAVEETLAGRADRIKGYSIAVEVFKRSNGFTQDDPVVRIEAGRLRRVLERYYFTAGQHDPIRIDIPKGGYVPTFAWTSPSEDNSDAEDQSLPPEHASSLFPGLRRHIWTVVLGLIVIVGGASALAGLTSIRFSSIWPFATADITESDGPTLVIAPFANLGDGPQAELYTTGLTEELLTALPRFKEIKVFGRETSRSLPPEVETSRIRGELGARFLLAGGVRVSGSRVRVTARLLDTQTDEILWSQTYDDDIGVRDLFTIQSDVANKVATAVAQPYGIMAQADVSNPPPDDLGSYGCTLSFYAYRAELSIERHGEVRNCLESAVARYPSFATAWAMLSIIYLDEDRFRFNRKPISSTPIDRSFQAARRAVQLDPGNTRALQALMTTLFFSQRVSEALQIGERALATNPNDTELLAEFGTRLAMSGEWQRGAALLDRAIALNPAGGGYYRGTRALAAYMLHDDKTAVIEIRQADLQKFPLFHAVAAVIYVDAGMIDDARSEAARFNEMRPDFIPNIVAELKVRNFQPQDRARMIADLRTAGLLVRDEVQATMSLPIDDSKALQPR”, the protein production entry was “failed”.
To “MPHLVIEATANLRLETSPGELLEQANAALFASGQFGEADIKSRFVTLEAYRQGTAAVERAYLHACLSILDGRDAATRQALGESLCEVLAGAVAGGGEEGVQVSVEVREMERASYAKRVVARQR” belongs “not failed”.
With “MLNTSDIGKVFPSVTAVVEKGRLRFFAKAIGENNPIYTDEAAAKDAGYESLPMPPTFFFSLKMDVPNPFENYEKVGASLAKILHANQAFVYHQSVVAGDSLTFESHIADIYDKKAGALEFLVEKTKVSNQRGQHVADMTTTLVVRNLEHHHHHH” the entry was “failed”; with “MHCDDVMLPAALHRESCPAPEGVVTVADTTRNASGHARPRISIIIPAWNIAPWIGQTLRSILSQTVDDFECIVIDDGSTDGTAQVVASVADPRIRCIRQPNAGVSAARNRGIAEAQGAFITFLDGDDYWLPCFLETLLPPLLTRPEVDLVYCGMTMFMDDDGTVKPQPWGNVHATGNVWWDMLSDSVMLMGAWLARAEVVKGCRPFDPTLRVGEDRDFLLSMLEDIYHQRHHEAVGIDARLLRYRQRRGSGVRQVADALQCEWHMMDRHLRHEGIPPAVRRRAYSDLAFKMGVIAAFGARDIALALRWYGKAFALCPMNGNLYWLPLRKMFLSLRPRRRLHMKVLFLSARADFGGGPEHVLQLLRRLPPDVEAAVACPEDVPYWERFRNIVGDDNMFSMPHRAFTLEAVARLRRFCRKRGFDVLHAHGKGAGLYARVLSLLCGIPSVYTFHGVHLGGYGPLKRWLYGAYERAASWCTRRGIAVSRGERDAIEAHGLMPASKVSVIMNGVEMPEGTAPRPAGPPWLVVSFSRFDMQKNSLFLLDVARALQEQGRLDGFRFLLVGDGPDRARLLEQAAAQGLGDRVSCPGATPTPHEAYAGALCYFSSSRWEGMPLAVLEAMAHGLPVVATDVVGNRDAVADGVTGLLYPEGDAGAAARGLVRLADEAALWAAMAHEARAWVATRHDVQRMADRTFHELRKACGRA”, “failed”.
As for “MSLDIAVVGIGYVGLVSATCFAELGANVRCIDTDRNKIEQLNSGTIPIYEPGLEKMIARNVKAGRLRFGTEIEQAVPEADIIFIAVGTPAGEDGSADMSYVLDAARSIGRAMSRYILIVTKSTVPVGSYRLIRKAIQEELDKREVLIDFDIASNPEFLKEGNAIDDFMKPDRVVVGVDSDRARELITSLYKPMLLNNFRVLFMDIASAEMTKYAANAMLATRISFMNDVANLCERVGADVSMVRLGIGSDSRIGSKFLYPGCGYGGSCFPKDVKALIRTAEDNGYRMEVLEAVERVNEKQKSILFDKFSTYYKGNVQGRCVAIWGLSFKPGTDDMREAPSLVLIEKLLEVGCRVRVYDPVAMKEAQKRLGDKVEYTTDMYDAVRGAEALFHVTEWKEFRMPDWSALSQAMAASLVIDGRNVYELPADSDFTLLNIGNSAIESEGHHHHHH”, the protein production result was “not failed”.
As to “MNVSRLCSLYPTLLIPLLFVAGCGLFASSTAPVSRSPESMAREAEEFQSSRRFEDAIAQWRKVKESYISPELITLAEIKIADAQFDSGNYIEAAASYEEFRKLHPNHEKSAYALYRQGLSYFNQIHGFDTDQTPVSNTVTIFESFLRLYPQSEHAEEVRNKLDAARQNQVQYEIYVGQFYYRTEKYTSAIKRLEDALKRYPRSPLHDETLYYLGKAYIKAGDKAGGREAFQRLFNEFRTSKYVDEARSFLDKNF”, the protein production result is given as “failed”.
With “MSKTLKEITDQKNELKKFFENFVLNLEKTEIFSEIQKNLTDEVLFVGCGSSYNLALTISYYFERVLKIRTKAIPAGEVAFQKIPDLEERGLAFLFSRTGNTTEVLLANDVLKKRNHRTIGITIEEESRLAKESDLPLVFPVREEAIVMTKSFSMILLSLMFLADKIAGNSTERFSELVGYSPEFFDISWKVIEKIDLKEHDHFVFLGMSEFFGVSLESALKCIEMSLTFSEAYSTLEYRHGPKALVKKGTLVFMQKVSGMDEQEKRLRKELESLGATVLEVGEGGDIPVSNDWKSAFLRTVPAQILGYQKAISRGISPDKPPHLEKTVVL” the entry was “not failed”.
Take “MQSKRGRPRNIETQKAILSASYELLLESGFKAVTVDKIAERAKVSKATIYKWWPNKAAVVMDGFLSAAAARLPVPDTGSALNDILIHATSLANFLISREGTIINELVGEGQFDSKLAEEYRVRYFQPRRLQAKQLLEKGIKRGELKENLDIELSIDLIYGPIFYRLLVTGEKLDDSYVHDLVINAFEGIRLR”: the protein production entry is on record as “not failed”.
Take “MKFGRRATSRTEPGKRCVARPRYNSAMSEFTDSAAGRSATSPADASSSALRRLRAIQPLPDQLISQIAAGEVVERPASVVKELVENALDAGAGTLRILLDEGGVKRISITDDGCGIPAAELPLALMRHATSKIRSLAELEAVATLGFRGEALASIASVAEMFITSRTEDDAHATRIDAQTGVLAPAAGTRGTTIEVRELYFSTPARRKFLKSEQTEFGHCLEMIRRAALARPDVAISVLHNGRAVEHWNASEPAARVAKILGDGFATAHLPLDERAGPLAVYGCAGLPTASRGRADQQYFFVNGRFVRDKLLTHAVRAAYEDVLHGDRYPSYVLFLDLPPEAVDVNVHPSKIEVRFRDSRSIHQFVFHAVQRALARHAGASPETTAGGHAAHLSPVEPAQAGSPAAPSASFVRPDAAAAGAGVGHPAPGNTWLRQSRMTQGTLPVAQPLALYDALFGRKDSGAGTPHGTTGVLEARDAPDAPGAPLFASAPGGAAMPAFSAAGASDPAMHDEQPLGFAVGQIHGIYVLAQNARGLVIVDMHAAHERILYEQFKRALADRTVAVQTLLIPVSMTATPVEVGTAEEERETLDALGFDLAVLSPTTLAIRAVPALLKDADLQALARAVLADLHAFGGSRVLTERQHELLGTLACHHAVRANRRLTLDEMNALLRQMEATERADQCNHGRPTWYQLTLGDLDKLFMRGQ”: the protein production result is listed as “failed”.
As to “MPMSFSLTQMILISAAYLAVLFGVAWISERGMIPRSIIRHPLTYTLSLGVYASAWAFYGTVGLAYQYGYGFLSSYLGVSGAFLLAPVLLYPILKITRTYQLSSLADLFAFRFRSTWAGALTTIFMLIGVLPLLALQIQAVADSIGILTHEPVQHRVALSFCALITLFTIFFGSRHIATREKHEGLVFAIAFESVIKLIAIGGVGLYALYGVFDGPQQLELWLLQNQTALAALHTPLQEGPWRTLLLVFFASAIVMPHMYHMTFTENLNPRALVSASWGLPLFLLLMSLAVPLILWAGLKLGATTNPEYFTLGIGIAANSPALALLAYVGGLSAASGLIIVTTLALSGMALNHLVLPLYQPPAEGNIYRWLKWTRRALIVAIIMAGYAFYLLLGAEQDLANLGIVAFVATLQFLPGVLSVLYWPTANRRGFIAGLLAGILVWLVTMLLPLIGNLQGFYIPLLNMIYVLDDTSWHMAAIASLAANVLMFTLISLFTNASTEEASAAEACAVDNVRRPQRRELHAASPQEFATQLAKPLGAKAAQKEVEQALRDLYLPFDERRPYALRRLRDRIEANLSGLMGPSVAQDMVETFLPYKAGGENYVTEDIHFIESRLEDYHSRLTGLAAELDALRRYHRQTLQELPMGVCSLAKDQEILMWNKAMEELTGIPAQHVVGSRLSTITNPWKDLLQGFINLPDEHLHKQHLALDGQTRWLNLHKAAIDEPLAPGNSGLVLLVEDLTETQTLEDKLVHSERLASIGRLAAGVAHEIGNPITGIACLAQNLREEREEDGELTEISEQILEQTKRISRIVQSLMSFAHAGSHQHNDEAVCLAEVAQDAIGLLALNRRNFEVQFFNLCDPDHWVDGDPQRLAQVLINLLSNARDASPPGSAVRVKSEAFEHTVDLIVEDEGSGIPKNIMDRLFEPFFTTKDPGEGTGLGLALVYSIVEEHYGQITIDSPADPQSQRGTRIRVTLPRHVEATSAVN”, the protein production result is recorded as “failed”.
On to “MAAAMVPGRSESWERGEPGRPALYFCGSIRGGREDRTLYERIVSRLRRFGTVLTEHVAAAELGARGEEAAGGDRLIHEQDLEWLQQADVVVAEVTQPSLGVGYELGRAVAFNKRILCLFRPQSGRVLSAMIRGAADGSRFQVWDYEEGEVEALLDRYFEADPPGQVAASPDPTT”, for which the protein production entry was “failed”.
Consider “MGISVASSNKPNNYDRYFNIYGVVIAAVLAAIAAIEIFEIFELPFEKYFAGIDIASIFSFTTKVVSDSSYVGIFILMTLESMFIPIPSEVILPLSGFLVYQGSFNFAVVLADTIIASMVGSFIDYFLGLYLGRPIIVKILSYFSISEDSLSRAETWIDKMGSFSVFLARFIPGIRSLISLPAGMLKMKMWLFALMTFLGSFIWSFSLIYLGYSAGPYWSVAVKNFSALLDQIIIDVVFLASLAYIFYYIFLKIKRRQHALD”, for which the protein production entry is “failed”.
To “MTPVQIAAVVVTYESSSTIDACLSRLRAAEGISEIRVVDNASSDDTLEVVQRHALADARLHFIANPDNPGFATACNQGARDSQAPWLVFINPDLMIARDTLLQLYHRAAGHPAVLLGVEQVDEQGRPDAAVRRRDPDFAAMLRAPRAAANLAVPADPSRALQPVDAISGALMLMQRSLFDRLDGWDGSYRLHAEDLDLCRRARQAGALVAVANDLHVLHVRGVSSRARPFFVEWHKHRGLWRYFRKFEADRRGLLTRLGVWLAIWSHAAAQVPRLLQNKLEHHHHHH” belongs “failed”.
